Reference: patent US20240360242A1 (KISOJI BIOTECHNOLOGY, published 2024)

Molecular target: T1, recombinant human TROP2 extracellular domain (aa 1-274) comprising His tag (human, UniProt P09758 27-274)
T1 construct: Used here for all assays on recombinant human TROP2 (ELISA, immunoblot, SPR, crystal), although only some of them name the catalogue number; also called human recombinant TROP2; recombinant human TROP2 protein; not shown: His tag
T1 sequence: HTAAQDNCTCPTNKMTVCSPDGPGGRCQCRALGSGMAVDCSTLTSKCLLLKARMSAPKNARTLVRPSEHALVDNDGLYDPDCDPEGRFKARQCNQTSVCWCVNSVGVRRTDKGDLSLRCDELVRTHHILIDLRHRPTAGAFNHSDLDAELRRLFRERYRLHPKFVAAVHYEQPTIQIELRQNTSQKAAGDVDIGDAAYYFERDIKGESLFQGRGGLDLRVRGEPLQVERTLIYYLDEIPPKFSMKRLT
Assay: competitive ELISA on coated recombinant human TROP2, competitor KD004-His, anti-His-HRP
Procedure: The epitope characterization was assessed by competitive ELISA (FIG. 8 and FIG. 9). Microplates were coated with human recombinant TROP2 at 4° C. overnight. After washing, plates were blocked with blocking buffer (PBS+2% BSA), for 1 hour at room temperature. Meanwhile, the dilution for anti-TROP2 VHH sdAbs was prepared with blocking buffer making two different dilutions depending on the tag. For sdAbs with His tag, the antibody was diluted to 28571.4 pM. For sdAbs without tag, antibodies were serially diluted from 2857142.9 pM to 0.29 pM (8 dilutions, 10×). After that, equal volume of the his-tagged sdAbs and serial diluted non-tagged sdAbs were mixed, to make the final concentration of his-tagged sdAbs 14285.7 pM and non-tagged sdAbs from 1428571.4 pM to 0.14 pM. After washing two times, the mixed antibody contents were added into the wells and the plates were incubated for 2 hours at room temperature. The HRP-conjugated anti-6× His was diluted to 1:5000 and added to the wells after washing three times. Any unbound conjugate was removed by washing after 1 hour incubation at room temperature, and the colorimetric reaction was performed by adding the same volume of Supersignal ELISA Pico Luminol/Enhancer and SuperSignal ELISA Pico Stable Peroxide Solution and detected on SpectraMax i3x Microplate Reader. Positive and negative controls were included in each plate.

B1: KD004 (antibody, human IgG1, V domains shown)
VH: QVQLQESGGGLVQPGRSLRLSCAASGFTFSGSDMSWVRQAPGKGPEWVSYITGSGTTYYPDSVKGRFTTSRDNAKNMLYLQMNSLKPDDTALYRCAKARLTDSHYVEDAWGQGTQVTVSS
notes: also called anti-TROP2 sdAb KD004
With B1 the “IC50 (read off the curve)” value was ~60 nM.
